In the supplement of paper PMC10567573:

B1: INTS4 (parent)
chain: YSSGEFSSGRKWGDDAPKEEVDTG

Variants of: B1
Experiment: protein stability index of a GFP-peptide fusion (GPS, HEK-293T) (PSI 1-6); higher = more stable
Conditions: c terminus: a fixed tail appended
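Further: lentivirally expressed fusions sorted by FACS into six bins by GFP to DsRed ratio, PSI derived from sequencing read proportions per bin multiplied by bin number.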

Protein stability index of substitutions, site by site:
K11: N 3.21 | Y 3.31 | D 2.73 | R 1.97 | L 1.91 | P 2.08 | G 2.98 | A 2.7 | Q 2.83 | T 2.31 | F 1.9 | H 2.45
S7: M 2.17 | A 1.91 | T 3.02 | I 1.96 | E 4.21 | K 3.45 | P 1.67 | H 1.92 | F 2.98 | R 1.8
E5: H 2.16 | V 1.32 | A 2.75 | Y 1.04 | G 2.78 | P 2.95 | L 2.11 | F 1.76 | T 3.55 | I 1.97 | Q 2.14 | R 2.15
D14: S 2.19 | K 1.71 | N 2.59 | P 2.04 | L 1.98 | V 2.01 | R 2.02 | W 2.2 | F 2.59 | Y 2.48 | A 2.54 | G 1.22 | Q 1.41 | T 1.94
E20: A 2.3 | F 2.42 | L 1.89 | W 1.97 | R 2.28 | D 2.49 | V 2.37 | H 2.63 | I 2.43 | T 2.38 | G 2.17 | Q 2.6 | C 2.5 | P 2.42 | N 2.35
G13: P 2.6 | E 3.02 | K 2.5 | L 2.35 | S 2.94 | A 2.65 | I 2.48 | M 2.45 | T 2.5 | H 3.66 | R 2.15 | F 2.65 | N 3.13 | D 2.5
D22: C 2.67 | S 2.17 | T 2.34 | F 3.28 | W 1.64 | V 1.86 | Y 2.02 | E 2.72 | K 1.65 | I 2.66 | Q 2.71 | G 2.35
T23: V 2.39 | Y 2.36 | L 2.9 | Q 2.15 | I 2.3 | G 2.81 | H 2.35 | P 1.9 | S 2.67 | R 2.96 | N 2.35 | F 2.47 | D 2.96 | K 2.46 | A 2.35 | C 2.95
Y1: I 5.55 | A 4.93 | S 5.81 | W 4.52 | E 5.74 | H 5.51 | K 5.62 | N 5.22 | Q 5.66 | C 3.87 | R 5.71 | D 5.8
W12: D 3.21 | I 3.2 | K 2.94 | P 2.92 | Y 2.57 | C 2.7 | M 2.85 | A 3.22 | F 2.96 | L 3.24 | E 3.84 | H 3.29 | T 3.08 | Q 3.17 | N 3.3
G4: M 3.75 | F 3.6 | T 3.61 | L 3.33 | D 4.57 | C 3.61 | Q 3.92 | W 2.43 | N 4.01 | P 3.11 | S 4.02 | Y 3.91 | A 3.56 | H 4.42 | E 4.08
D15: H 1.81 | K 2.18 | Y 2.01 | G 2.07 | N 2.34 | F 3.02 | P 1.96 | V 1.78 | S 2.54 | R 1.92 | W 1.69 | M 1.78 | L 2.04 | A 1.78 | T 2.28 | I 1.11
R10: K 2.81 | F 1.74 | L 2 | V 2.5 | N 2.63 | H 2.85 | D 3.93 | T 2.8 | W 1.65 | Y 2.41 | E 3.65 | I 2.13
E19: T 2.72 | P 2.3 | K 2 | Q 2.95 | C 2.37 | V 1.84 | N 2.52 | L 1.94 | M 2.93 | S 2.26 | D 2.74 | Y 1.74 | I 2.32
S8: G 3.83 | R 2.24 | N 2.68 | T 2.48 | F 2.48 | H 2.25 | Q 1.89 | Y 2.59 | M 1.6 | C 1.97 | P 3.25 | L 3.21 | A 2.75 | I 1.94 | V 1.57 | K 2.19
V21: E 2.84 | S 2.54 | M 2.78 | D 2.92 | G 2.94 | Y 2.74 | K 2.8 | T 3.31 | I 2.27 | C 3.39 | F 2.58 | P 3.13 | Q 2.73 | N 2.81 | L 2.28 | H 2.74
F6: Y 4.13 | M 4.69 | L 4.24 | A 4.88 | H 4.96 | K 4.65 | P 5.56 | T 4.79 | N 5.22 | D 5.75 | C 5.11 | R 4.63
A16: E 2.99 | W 2.01 | V 2.42 | P 2.32 | F 2.3 | S 2.63 | G 2.16 | Y 2.56 | Q 2.71 | D 2.95 | K 2.19 | T 2.28 | M 2.52 | H 1.92 | R 2.71 | N 2.09 | I 2.28 | L 2.48
G24: A 2.59 | C 2.96 | P 2.4 | F 2.63 | Q 2.58 | H 2.51 | D 2.16 | N 3.09 | Y 2.28 | V 2.72 | L 2.76 | K 3.9 | M 2.68 | S 2.65 | T 2.72
P17: E 2.8 | F 2.45 | Q 2.35 | K 2.31 | G 2.09 | N 2.87 | W 2.9 | D 3.06 | T 2.96 | S 3.25 | C 2.64
K18: S 3.16 | G 3.44 | R 3.13 | N 2.96 | Y 2.62 | P 3.08 | H 2.83 | T 2.56 | V 2.81 | Q 2.92 | W 2.88 | L 2.49 | C 2.62 | E 3.84 | D 3.16 | A 3.05 | M 2.82 | F 4.04
S2: D 5.77 | Y 4.92 | W 3.81 | A 2.28 | N 4.64 | C 2.04 | F 4.02 | H 1.48 | T 2.67 | L 3.48 | K 5.2 | E 5.4
S3: F 3.93 | E 5.22 | D 5.15 | K 4.51 | Q 3.86 | C 4.1 | T 3.83 | R 4.47 | I 4.01 | L 4.59 | N 4.08 | A 4.89 | G 3.5 | H 4.43 | V 4.77 | Y 4.13 | W 2.89
G9: P 2.27 | F 2.48 | Y 2.44 | A 1.91 | C 1.75 | I 1.84 | D 3.6 | E 2.76 | M 1.83 | W 1.43 | N 2.59
